Assay results published in the DeepSol protein solubility set.

Assay: soluble on expression in E. coli; label from the status in PepcDB or PDB records

Row | Sequence | soluble on expression in E. coli
1 | MSLKTTPLPILDLLEAYRPLFVEALGNRSRKERSKKERYIAKITAPCIDACPAHVDIPAYIEGVRDHLLGDSLAATRKSMPLAQVCGRVCPHPCESACRRGDLDEPISIMELKRLGADYEKERHGGFIHPYPPKPRRKDKRVAIIGAGPAGLSSAYYLALEGIMSDVFEALPVLGGEVSVGVPEYRMPIDRYYHDIEAIKSLGVSFWTNHFVSAKELDEMRQKYDAIILATGARISKKLGVKGEEESLGGYAPAIPWLDQINLATKFNLAALPDLRGKSVVCVGGGFTSMDVVRCAVRLGAKRIVMLYRRDEATLIQNTSKEEYHEALEEGVEFLFQCAVQEIKSCGGEIKALLVEEYEVVYEEGARKPSLRRIEREPLFLECDLLIPAVSQEVDRSFIPKEWNLESTSWGSFKTNGKDFSTTLRGVFAAGDCEKGPLTIVNAVGQGKRAASVVSRFLEDGEEGHHHHHH | soluble
2 | MSLKTYALVMAGGRGERLWPLSREDRPKPFLPLFEGKTLLEATLERLAPLVPPERTLLAVRRDQEAVARPYADGIRLLLEPLGRDTAGAVLLGVAEALKEGAERLLVLPADHYVGDDEAYREALATMLEAAEEGFVVALGLRPTRPETEYGYIRLGPREGAWYRGEGFVEKPSYAEALEYIRKGYVWNGGVFAFAPATMAELFRRHLPSHHEALERLLAGASLEEVYAGLPKISIDYGVMEKAERVRVVLGRFPWDDVGNWRALERVFSQDPHENVVLGEGRHVALDTFGCVVYADRGVVATLGVSGLVVAKVGDEVLVVPKDWAREVREVVKRLEAQEEGHHHHHH | soluble
3 | MSLKVFLKKGKEKKVKHFYPWVFRDEVEKIEGEGIVAELYDSEGNFLALGTYSPYSRIAFRVLSYEREEVNEEFFKRRLRESELLRRDIPSNAYRLAFSESDLLSGLIIDRYGDAFVIQVRSYPMEILKEKVLKTLVEEFNPAFVYERSDFKGRREEGLKEFKGLLYGKLENPLIIEEREFKFLVDVVEGLKTGFYLDQRDNREYVRNLVKEGDRVLDLFCYSGGFSVYCANRGAKVVGVDINKRAVELARENAKLNSVKADFVLGNAFDFIQESKEEWDLIIADPPAIAKTKKEKESILWAIWKLAYYSFQKLKKGGSLFICSCTYQISSEEMIRQVRLASTDVKRRIIIKSLNLQPIDHPYLPTFPESLYLKCLHAIVIDEGHHHHHH | soluble
4 | MSLKYGIIGAGAMGYRYGVMLQENAGVDVDFIDTWGPNVAKVREQGGVDVARDHQNHHVVPINIYYPEEYQGHPDVWIVFKKQMQLADELKRDASLFHEDQYVFAAMNGMGHFEKIAQYFPENHIIGGTAMIATVLNGPGTVDFMGPKGSEAMHMSKYAGHIDTTTKQVMADFKAADLNPIWSDNFMGMCMSKVVFNAVTNSLCTMFEIQMGQFIEYPGVKDMATQMFNEAYDACERAGIKLIETRQEEIDSVETVSRAYKYHYPSMYQDFSKGRPTEVDYINGYIAKIGREHDYVCRVHEFVTHEVHLAEMMRQYRHPEIPVAEKEGHHHHHH | not soluble
5 | MSLLERLNQDMKLYMKNREKDKLTVVRMVKASLQNEAIKLKKDSLTEDEELTVLSRELKQRKDSLQEFSNANRLDLVDKVQKELDILEVYLPEQLSEEELRTIVNETIAEVGASSKADMGKVMGAIMPKVKGKADGSLINKLVSSQLS | soluble
6 | MSLLKQKILNRESGIITYGITPPKKNNTEEKIKEISQKHIERISGLDIDGLVIYDLQDEKERVSEERPFPFIETIDPQIYSENYLKDLKIPKIIYRCVGKYTPDEFRRLTRPVSGQDAFSVFVGAASRNQSVLLKLSDAYKIRQDVNPDLLLGGVAIPERHMKNTDEHLRIIDKINKGCKYFITQAVYNVEAAKDFLSDYYYYSKNNNLKMVPIIFTLTPCGSTKTLEFMKWLGISIPRWLENDLMNCEDILNKSVSLSKSIFNELMEFCLEKGIPIGCNIESVSVRKVEIEASIALAKDIKYIMKGEGHHHHHH | soluble
7 | MSLLMTLVDEIKNRSSHVDAAIDELLPVTRPEELYKASRYLVDAGGKRLRPAVLILAAEAVGSNLRSVLPAAVAVELVHNFTLIHDDIMDRDDIRRGMPAVHVKWGEAGAILAGDTLYSKAFEILSKVENEPVRVLKCMDVLSKTCTEICEGQWLDMDFETRKKVTESEYLEMVEKKTSVLYAAAAKIGALLGGASDEVAEALSEYGRLIGIGFQMYDDVLDMTAPEEVLGKVRGSDLMEGKYTLIVINAFEKGVKLDIFGKGEATLEETEAAVRTLTECGSLDYVKNLAISYIEEGKEKLDVLRDCPEKTLLLQIADYMISREYEGHHHHHH | soluble
8 | MSLLNIIRLLAESLPRISDGNENTDVWVNDMKFKMAYSFLNDDIDVIERELEQTVRSDYPLLSEAGLHLLQAGGKRIRPVFVLLSGMFGDYDINKIKYVAVTLEMIHMASLVHDDVIDDAELRRGKPTIKAKWDNRIAMYTGDYMLAGSLEMMTRINEPKAHRILSQTIVEVCLGEIEQIKDKYNMEQNLRTYLRRIKRKTALLIAVSCQLGAIASGADEKIHKALYWFGYYVGMSYQIIDDILDFTSTEEELGKPVGGDLLQGNVTLPVLYALKNPALKNQLKLINSETTQEQLEPIIEEIKKTDAIEASMAVSEMYLQKAFQKLNTLPRGRARSSLAAIAKYIGKRKFEGHHHHHH | not soluble
9 | MSLLPRTTSVKPGEKFDVIIVGLGPAAYGAALYSARYMLKTLVIGETPGGQLTEAGIVDDYLGLIEIQASDMIKVFNKHIEKYEVPVLLDIVEKIENRGDEFVVKTKRKGEFKADSVILGIGVKRRKLGVPGEQEFAGRGISYCSVADAPLFKNRVVAVIGGGDSALEGAEILSSYSTKVYLIHRRDTFKAQPIYVETVKKKPNVEFVLNSVVKEIKGDKVVKQVVVENLKTGEIKELNVNGVFIEIGFDPPTDFAKSNGIETDTNGYIKVDEWMRTSVPGVFAAGDCTSAWLGFRQVITAVAQGAVAATSAYRYVTEKKGKK | soluble
10 | MSLLTEVETYVLSIIPSGPLKAEIAQKLEDVFAGKNTDLEALMEWLKTRPILSPLTKGILGFVFTLTVPSERGLQRRRFVQNALNGNGDPNNMDRAVKLYKKLKREITFHGAKEVALSYSTGALASCMGLIYNRMGTVTTEVAFGLVCATCEQIADSQHRSHRQMATITNPLIRHENRMVLASTTAKAMEQMAGSSEQAAEAMEVANQARQMVQAMRTIGTHPNSSAGLRDNLLENLQAYQKRMGVQMQRFK | soluble
11 | MSLMPDKKGYIIDIDGVIGKSVTPIPEGVEGVKKLKELGKKIIFVSNNSTRSRRILLERLRSFGLEVGEDEILVATYATARFIAREKPNAKVFTTGEEGLIEELRLAGLEIVDYDEAEYLVVGSNRKINFELMTKALRACLRGIRYIATNPDRIFPAEDGPIPGTGMIIGALYWMTGREPDVVVGKPSEVIMREALDILGLDAKDVAVVGDQIDVDVAAGKAIGAETVLVLTGVTTRENLDQMIERHGLKPDYVFNSLKDMVEALEGEGHHHHHH | soluble
12 | MSLMTLYPVVVQERTTGEVLMLAYANEEALELTKKTGYAHFFSRERQKIWKKGETSGNTMRVVEIRRDCDDDAYLYIVDFPEDKVACHTGNRSCFFKVEHRFEETGSPTFWLELYRLVRKRKEEMPEGSYTVKLFKEGKGKIAKKFGEEAVEVITGYLQNDRENLVWEIADMMYHLTVLMADAGVTVQDVMRELEKRRKEGHHHHHH | soluble
13 | MSLNDEMKGKSGKVKVMYVRSDDDSDKRTHNPRTGKGGGRPGKSRADGGRRPARDDKQSQPRDRKWEDSPWRTVSRAPGDETPEKADHGGISGKSFIDPEVLRRQRAEETRVYGENACQALFQSRPEAIVRAWFIQSVTPRFKEALRWMAANRKAYHVVDEAELTKASGTEHHGGVCFLIKKRNGTTVQQWVSQAGAQDCVLALENESNPHNLGGMMRSCAHFGVKGVVVQDAALLESGAAIRTAEGGAEHVQPITGDNIVNVLDDFRQAGYTVVTTSSEQGKPLFKTSLPAKMVLVLGQEYEGLPDAARDPNDLRVKIDGTGNVAGLNISVATGVLLGEWWRQNKAEGHHHHHH | soluble
14 | MSLNDGNAMGQVIQIDEARIRDHLGEMVRGTVEETLNAMLEAEADQLCGAGRYERSPARQDTRAGSYERTLQTKAGDVNLKVPKLRRQTFETAIIERYRRRESSVEEALIEMYLAGISVRRVEDITEALWGTRVSPSTVSNLNKKIYAKIEAWRNRRIEGEHPYLYLDGIVMKRSWAGEVRNVSLLVASAVNAEGFREILGICEGAKEDKSGWSSFLRHLVDRGLKGVQLVVSDACRGLVESVADYLPEARYQRCMVHFYRNVFSHVPSTRVHEVSHMLKAIHAQESRAAADEKARTVIADLRASRMAKAADLVEQAVHETLAYYAFPDIHWRKIRTNNPLERIMKEIRRRTRVVGAFPDGQSCLNLAAARLRHIAGTAWSTKCYMNMRPLYQPQLSETGAVAEGHHHHHH | soluble
15 | MSLNDLLVGLLLPEKENTRYEQFDYPFFKKKVGELTRDEGIVKYANAEASATKQADQMQQMIEDKVDVIVLDAVDAHAIADGVQKAKDAGIPVIAYDRLAEGPIDAYISFDNELVGEVQGRSLIEALGGDPESSAKIVMMNGSSTDPNAKQFKAGALSELNGKVTIAQSFDTKDWKPENAEANMTEAIEKIGKKKIAGVYSANDGMAGGVIKALEDAGVTDLPPITGQDAELAAVQRIVTGEQYMSVYKSYPQEAENAAEMAVARVQGRDIQFDALARDKVDSPTHKGIPAQLVPVVALTKANIEETVVAEGHHHHHH | soluble
16 | MSLNDLVMDVDLDFADGQSPMRTKKANEIIRDPISGSVVIPIDADKFPKESHNSPLVFKLGNGANENIMHVKSQKDVNLYPVPLSTSDFSENFINYICNLFDIYQDLGSHRIFSRPTIGVISSDYELEHTRVVNMALDSMIIELEILIASYDKLENANIARILELEQCLVILQCLRTFQFIDSINDRATFFDSLLKWTNRTDGEPKVEYIQSIFGQSDSSQVFFTEPFWKLVYQLLLRGLTEQAINTLEKSELAKYLKENCETTSTIFEDFIQLVKNYPLESEEHFREWKSFALELQQNFEDADTKIPVPLRKNLLDAISITAGNRDKILQHSSFWYESLTGFLLYYIPSEELIQEYVGLAVSKTPIDVTNPWETACLKILQNDIFPVLPILESLDNCTASFSAALCESKGLLIDRYTILEENSGSDDIEIDDIFSQRNGMASFLLNNFALELCSMKMKTLWPVAIGLISLSPYNTPSSKKSTIAELIPHYPFETNDDIEWALSVCAKWRLPDIAKEIYTTLGNQMLDNGNTVEAIANFSKAGQYELVKHYSWLLFENAAFQGKPMEDEVLSAIVDGDFNTSELIPDEVLNKVVTNAMRQSLSPYAVLSQFFSNVENERWSKALQQLMSLIEFEYLPKKYTVLLIVKYMYPLFLNDDQRMIDEETLVSLLAAIEKNWDCDDTDSVIAYEKLSEEIADLPKELKSMEKLIRKKLNGKLCLNLMIEGHHHHHH | soluble
17 | MSLNDSRLLPVGSSPLEVAAARACAEIERTPVNIRALWNPDTCPENLLPWLAWAFSVDRWDENWPEGTKRAVIRDAYFIHCHKGTIGAIRRVVEPLGYVINVTEWWESSDPPGTFRLDIGVLESGITEEMYFEMERLIADAKPASRHLTGLNIVQDIPGYLYTGGVSCDGDIITVYPGEGHHHHHH | not soluble
18 | MSLNEIDNKLFLVYVGGTAPGANIELHDIRFVVGPSMEETYPAIRKGWFGTQKGLHLDSFVHLHHVDGYRIHLTSEAHEKPEEKRLYFVNFGGYFPNKLAEYHDFTVVVADSPQSAKQLARAQFSKAGLADAEQIHKDDLLAVDDCLCVDLVDNHYVTLEFDGEQQPLVPDWKGYQPLPEGHHHHHH | soluble
